Laboratory results as given in article PMC5389570.
Where two headings read alike, the source gives them in different places.

Legend:
Cdc45 = target: T1, Cdc45 (Homo sapiens, UniProt O75419 1-566); test: EMSA
T1 sequence: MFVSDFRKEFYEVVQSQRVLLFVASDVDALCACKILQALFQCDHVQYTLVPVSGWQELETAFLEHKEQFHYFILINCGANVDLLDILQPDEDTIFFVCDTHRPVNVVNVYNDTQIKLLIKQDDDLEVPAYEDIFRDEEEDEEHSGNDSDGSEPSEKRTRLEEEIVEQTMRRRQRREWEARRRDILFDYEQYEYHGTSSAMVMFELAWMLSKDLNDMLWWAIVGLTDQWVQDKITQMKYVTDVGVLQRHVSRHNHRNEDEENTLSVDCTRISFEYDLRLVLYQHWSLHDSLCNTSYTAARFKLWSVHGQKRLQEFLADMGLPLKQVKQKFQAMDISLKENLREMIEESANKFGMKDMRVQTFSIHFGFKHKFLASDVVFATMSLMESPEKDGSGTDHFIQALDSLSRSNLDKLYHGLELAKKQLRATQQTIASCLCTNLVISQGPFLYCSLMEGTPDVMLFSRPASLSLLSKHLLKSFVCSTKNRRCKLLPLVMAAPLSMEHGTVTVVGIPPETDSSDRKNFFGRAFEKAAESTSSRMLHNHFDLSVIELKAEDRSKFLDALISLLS

SSB = SSB (Escherichia coli, UniProt P0AGE0 1-178); test: EMSA
Chain of SSB (P0AGE0 whole entry): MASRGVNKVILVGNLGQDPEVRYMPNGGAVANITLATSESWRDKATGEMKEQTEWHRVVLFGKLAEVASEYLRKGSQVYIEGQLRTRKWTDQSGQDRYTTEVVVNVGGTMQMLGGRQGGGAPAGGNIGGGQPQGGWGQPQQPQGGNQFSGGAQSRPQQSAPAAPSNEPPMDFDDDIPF

[1] = target: T2, RPA heterotrimer (RPA70/RPA32/RPA14) (Homo sapiens, UniProt P27694;P15927;P35244 1-616;1-270;1-121); test: EMSA
T2 sequence (P27694 whole entry, chain 1 of 3): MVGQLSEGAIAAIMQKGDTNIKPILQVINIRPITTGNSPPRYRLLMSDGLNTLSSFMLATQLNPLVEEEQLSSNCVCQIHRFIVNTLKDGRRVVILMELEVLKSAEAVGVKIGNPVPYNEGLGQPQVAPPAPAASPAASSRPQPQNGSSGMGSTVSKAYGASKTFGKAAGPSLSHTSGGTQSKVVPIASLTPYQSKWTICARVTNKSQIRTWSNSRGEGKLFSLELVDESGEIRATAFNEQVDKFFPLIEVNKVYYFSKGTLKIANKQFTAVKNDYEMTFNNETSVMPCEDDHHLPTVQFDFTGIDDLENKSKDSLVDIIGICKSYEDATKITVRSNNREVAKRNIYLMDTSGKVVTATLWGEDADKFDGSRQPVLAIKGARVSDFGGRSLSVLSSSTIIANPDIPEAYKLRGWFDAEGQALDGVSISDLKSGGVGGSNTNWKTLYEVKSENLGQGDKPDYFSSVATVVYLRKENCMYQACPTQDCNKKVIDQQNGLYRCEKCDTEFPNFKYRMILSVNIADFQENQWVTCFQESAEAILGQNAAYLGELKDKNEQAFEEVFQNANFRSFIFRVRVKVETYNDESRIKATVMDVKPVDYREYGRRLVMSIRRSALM
T2 sequence (P15927 whole entry, chain 2 of 3): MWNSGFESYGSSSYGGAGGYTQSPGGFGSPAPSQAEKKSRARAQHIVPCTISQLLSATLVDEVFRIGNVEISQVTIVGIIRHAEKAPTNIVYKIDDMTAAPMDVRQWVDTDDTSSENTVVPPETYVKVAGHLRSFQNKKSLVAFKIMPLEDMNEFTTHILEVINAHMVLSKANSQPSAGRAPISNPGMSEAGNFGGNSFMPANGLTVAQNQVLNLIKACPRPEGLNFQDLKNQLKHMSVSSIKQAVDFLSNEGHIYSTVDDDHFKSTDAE
T2 sequence (P35244 whole entry, chain 3 of 3): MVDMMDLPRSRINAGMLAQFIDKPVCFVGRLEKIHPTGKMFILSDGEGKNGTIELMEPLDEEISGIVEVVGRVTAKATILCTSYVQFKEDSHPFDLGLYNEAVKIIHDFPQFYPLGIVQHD

[2] = target: T2, RPA heterotrimer (RPA70/RPA32/RPA14); test: SPR
[3] = target: T2, RPA heterotrimer (RPA70/RPA32/RPA14); test: EMSA; remark: listed apart in the source
[4] = target: T2, RPA heterotrimer (RPA70/RPA32/RPA14); test: SPR; remark: listed apart in the source

What does the source list for GCTTGCATGCCTGCAGGCCAGCCTCAATCTCATC (ssDNA) [M2 (34-mer)]?
binding result (Cdc45): no binding; binding result (SSB): binds; binding signal [1]: > 5 fold vs RPA alone

How did the Kd [2] turn out when GCTTGCATGCCTGCAGGCCAGCCTCAATCTCATC (ssDNA) [M2-biotin (34-mer)] was run?
Its Kd is 1.53 ± 1.3 nM.

B1: M5 (67-mer; called 65-mer in text) (ssDNA)
DNA: GTACCCGGGGATCCTCTAGAGTCGACCTGCAGGCATGCAAGCTTGGCACTGGCCGTCGTTTTACAAC
B1 was tested. Which binding signal [3] did it give?
Its binding signal is ~4 fold vs RPA alone.

How did the Kd [4] turn out when GGCTGGCATG (ssDNA) [M10-biotin (10-mer)] was run?
Its Kd is 112 ± 14 nM.

What about the Kd [2] of the same binder?
The Kd was 44.1 ± 4.7 nM.
